The values that follow come from patent US20220403048A1, “BINDING MOLECULES TO ARGINASE II [ARG2]” (Cancer Research Technology Limited, priority 2019, published 2022).

Numbering of substitutions follows the chain as printed.

For assay [1], the target named is T1, ARG2 (Homo sapiens, UniProt P78540).
T1 sequence (P78540 23-354): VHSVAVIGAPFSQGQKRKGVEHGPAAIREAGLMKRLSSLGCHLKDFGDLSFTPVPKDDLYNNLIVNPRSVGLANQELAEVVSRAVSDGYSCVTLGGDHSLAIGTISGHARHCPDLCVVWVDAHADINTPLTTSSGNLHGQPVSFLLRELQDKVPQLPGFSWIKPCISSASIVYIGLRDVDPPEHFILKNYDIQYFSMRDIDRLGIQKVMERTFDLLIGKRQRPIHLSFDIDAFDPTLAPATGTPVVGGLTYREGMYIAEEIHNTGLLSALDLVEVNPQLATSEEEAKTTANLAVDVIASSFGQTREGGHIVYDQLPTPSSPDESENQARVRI
The assay is described as follows: T cell proliferation assay (BrdU, 96 hours) with exogenous ARG2, improved variant IgGs. In kind it is cell-based. To be noted: In Absence of rhARG2, hIgG1. The method, then:
This assay served to provide evidence of improved functional efficacy for each affinity-matured antibody in comparison to the parent IgG, C0020187 (FIG. 12).
Lead optimisation clones were tested to an endpoint treatment time of 96 hours and the BrdU Cell Proliferation Kit (Roche, France; Cat: 11647229001) was used according to the manufacturer's instructions. R347 was used as the irrelevant control. All clones tested n=2.
Leukocyte cones underwent Ficoll Plaque (GE, Sweden; Cat: 17-1440-02) gradient separation, PBMC's were extracted and pan T cell population isolated by negative selection using the Human T Cell Enrichment Kit (Stemcell Technologies, France; Cat: 19051) according to the manufacturer's instructions.
40000 cells/well were seeded in complete growth media (RMPI 1640, 5% Human Serum Albumin) into a 96 well clear TC treated microplate (Greiner-Bio One, Germany; Cat: 655180). T cells were activated by the addition of ImmunoCult CD3/CD28 (Stemcell Technologies, France; Cat: 10971) at a dilution of 1:40 directly into wells and the plate incubated 37° C., 5% CO2 for 45 minutes.
To determine EC50's of test antibodies, a dilution series was created in sterile TBS/NaCl Buffer at 10× the final assay concentration added to the assay plate containing cells. Plate was incubated for 30 minutes at 37° C., 5% CO2.
ARG2 was added to relevant wells of the plate at a final concentration of 15 μg/ml. The equivalent volume of ARG2 vehicle and test antibody vehicle was added to relevant control wells. The total volume in each well was 200 μl. Cells were treated with test antibodies for a total of 96 hours at 37° C., 5% CO2. Antibodies were tested alongside C0020187 (parent IgG) as a positive control and R347 (irrelevant isotype control antibody) as a negative control.
Assessment of T cell proliferation was performed using the BrdU Cell Proliferation ELISA Kit (Roche, Germany; Cat: 000000011647229001). BrdU labelling reagent was added after 78 hours of antibody treatment and the plate further incubated for 18 hours at 37° C., 5% CO2. The remainder of the assay was performed according to the manufacturer's instructions.
Calculated data was expressed as % of control (Equation 3) and graphical plots were constructed using a four parameter fit and EC50's determined using model 205 in XLFit (IDBS, UK).
All test sample data was corrected for background (mean of no cell control)
% Control=100*((Test Sample−Mean Positive Control)/(Mean Negative Control−Mean Positive Control)) Equation 3:
Mean Positive Control=T Cells in absence of ARG2
Mean Negative Control=T Cells in presence of ARG2
This assay served to provide evidence of improved functional efficacy for each affinity-matured antibody in comparison to the parent IgG, C0020187 (FIG. 14, Table 19). R347 was used as the irrelevant control. All clones tested n=2. Reference section 2.9 for methodology.

The subject of assay [2] is cynomolgus ARG2. The assay is described as follows: Bio-Layer Interferometry (OctetRED) binding kinetics, cynomolgus ARG2. To be noted: cyno ARG2 ligand. The source says:
The OctetRED (Pall ForteBio) instrument was used to assess the kinetic parameters of the interactions between C0020187 and recombinantly produced human ARG2, cynomolgus ARG2 and human ARG1. The Octet biosensor uses an optical analytical technique that analyses the interference pattern of white light reflected from two surfaces: a layer of immobilised protein on the sensor tip, and an internal reference layer. Any changes in binding at the biosensor tip result in a shift in interference pattern, which can be measured in real time. Molecules associating with or dissociating from ligands at the biosensor tip shift the interference pattern and generate a response on the Octet system which is recorded by the acquisition software.
Typically, a defined concentration of the analyte species is brought into contact with the coupled ligand and any binding is detected as an increased in signal (association phase). This is followed by a period of buffer rinse, during which dissociation of the analyte species from the surface immobilised ligand can be observed as a decrease in signal (dissociation phase). Repetition of this with a range of analyte concentrations provides data for the analysis of binding kinetics.
An Octet Kinetics Buffer (PBS containing 0.01% BSA and 0.002% Tween20) is typically used as the diluent buffer for the analyte samples and as the flow buffer during the dissociation phase. The experimental data is recorded over time as shift in interference pattern (nm) over time, which is directly proportional to the optical thickness at the biosensor tip, which in turn is an approximate measure of the mass of analyte bound. The proprietary Octet Data Analysis software package can then be used to process data and fit binding models to the data sets. Returned association (ka, M^−1 s^−1) and dissociation (kd, s^−1) rate constants allow calculation of dissociation (KD, M) affinity constants.
The affinity of binding between the Fab of C0020187 and human ARG2, cynomolgus ARG2 and human ARG1 was estimated using assays in which the biotinylated ARG antigen was captured on a streptavidin sensor tip. A fresh sensor tip was used for each measurement and no regeneration was used. A series of dilutions of the C0020187 Fab (3.25-240 nM) were individually placed in contact with the ligand surface for a sufficient amount of time to observe sensorgrams that could be fitted to an appropriate binding model with confidence (typically 5 minutes), followed by an appropriate length of dissociation time (typically 10 minutes). Blank reference (0 nM Fab) data were subtracted from each dataset to reduce the impact of any buffer artefacts or non-specific binding effects. An appropriate binding model was then fitted simultaneously to the data from each analyte titration using the Octet Evaluation software.
Example results for C0020187 are shown in Table 9, showing the association rate constants (ka), dissociation rate constants (kd) and dissociation constants (KD). These parameters were derived from a 1:1 binding fit to the data.
The affinities of the affinity-matured antibodies to human ARG2 were measured on the OctetRED system as described in section 1.15 using the streptavidin capture method. Typically, an analyte titration range of 1.8 to 120 nM was used.
The affinities of some of these antibodies to cynomolgus ARG2 were determined using the same assay, and the derived kinetic parameters are shown in Table 21.
For orientation: Biolayer interferometry detects binding as a change in optical thickness at a sensor tip.

Setting [3] is: Fab as analyte, affinity-matured antibodies.
Setting [4] is: second-generation Fab, same extended assay.

Sequence of cynomolgus ARG2 (as listed by the source): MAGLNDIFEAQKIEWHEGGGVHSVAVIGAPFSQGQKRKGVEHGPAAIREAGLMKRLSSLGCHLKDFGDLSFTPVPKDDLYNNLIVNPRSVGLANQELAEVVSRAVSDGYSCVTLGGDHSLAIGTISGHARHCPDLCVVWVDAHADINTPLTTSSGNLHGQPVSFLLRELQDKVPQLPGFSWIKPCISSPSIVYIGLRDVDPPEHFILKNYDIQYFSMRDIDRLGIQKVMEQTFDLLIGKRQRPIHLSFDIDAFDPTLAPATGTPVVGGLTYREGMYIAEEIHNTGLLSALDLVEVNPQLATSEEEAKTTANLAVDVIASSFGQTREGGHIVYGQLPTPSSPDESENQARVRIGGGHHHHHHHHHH

B1: C0021061: anti-ARG2 antibody, first generation lead, VH SEQ ID NO: 62, VL SEQ ID NO: 67 (antibody, listed as Homo sapiens, V domains shown)
VH: EVQLLESGGGLVQPGGSLRLSCAASGFTFSSYAMSWVRQAPGKGLEWVSAKPTDAGSTYYADSVKGRFTISRDNSKNTLYLQMNSLRAEDTAVYYCARLRADLGLYMDLWGRGTLVTVSS
VL: QSVLTQPPSVSAAPGQKVTISCSGSSSNIGNHYVSWYQQLPGTAPKLLIYNTVYPKSGIPDRFSGSKSGTSATLGITGLQTGDEADYYCGTWDSSLSALVFGGGTKLTVL
modifications: C0021061
B1: in assay [1] (96 hours), the EC50 was < 0.9 nM and the “Maximum % Proliferation” value worked out at 99%. Further, in assay [1] (top conc 2 μM, n=2), the EC50 was < 0.9 nM and the “Maximum % Proliferation” value was 93%. In assay [2] (setting [3]), this molecule returned a ka of 310000 M⁻¹ s⁻¹ and a kd of 0.000296 s⁻¹.

B2: C0021065: anti-ARG2 antibody, VH SEQ ID NO: 72, VL SEQ ID NO: 77 (antibody, listed as Homo sapiens, V domains shown)
VH: EVQLLESGGGLVQPGGSLRLSCAASGFTFSSYAMSWVRQAPGKGPEWVSAISGFSPYYADSVKGRFTISRDNSRNTLYLQMNSLRAEDTAVYYCARLRADLGLYMDLWGRGTLVTVSS
VL: B1 VL with N51D, V53D, Y54H, P55M, K56A
modifications: C0021065
With B2, in assay [1] (96 hours), the EC50 is < 0.9 nM and the “Maximum % Proliferation” value is given as 101%. In assay [2] (setting [3]), this molecule gave a ka of 617000 M⁻¹ s⁻¹ and a kd of 0.000782 s⁻¹.

B3: C0021092: anti-ARG2 antibody, VH SEQ ID NO: 92, VL SEQ ID NO: 97 (antibody, listed as Homo sapiens, V domains shown)
VH: B1 VH with S31R, K51H, P52T, T53H, D54S, A55P
VL: B1 VL with T52S, Y54A, P55R, K56P
modifications: C0021092
Turning to B3, in assay [1] (96 hours), the EC50 is < 0.9 nM and the “Maximum % Proliferation” value was determined as 92%. In assay [2] (setting [3]), this molecule displayed a ka of 354000 M⁻¹ s⁻¹ and a kd of 0.000726 s⁻¹.

B4: C0021158 IgG: anti-ARG2 antibody, VH SEQ ID NO: 282, VL SEQ ID NO: 287; IgG and Fab versions carry these sequences (antibody, listed as Homo sapiens, V domains shown)
VH: EVQLLESGGGLVQPGGSLRLSCAASGFTFRYEVAAWVRQAPGKGLEWVSAISGPIPKGYYADSVKGRFTISRDNSKNTLYLQMNSLRAEDTAVYYCARLRADLGLYMDLWGRGTLVTVSS
VL: QSVLTQPPSVSAAPGQKVTISCSGSSSNIGNHYVSWYQQLPGTAPKLLIYDNSERTAGVPDRFSGSKSGTSATLGITGLQTGDEADYYCGTWDELTSNLVFGGGTKLTVL
modifications: C0021158 IgG
As for B4, in assay [2] (setting [4]), the ka stood at 429000 M⁻¹ s⁻¹ and the kd was determined as 4.64e-05 s⁻¹.

B5: C0021158: anti-ARG2 antibody, second generation lead, VH SEQ ID NO: 272, VL SEQ ID NO: 277 (antibody, listed as Homo sapiens, V domains shown)
VH: B4 VH with S119P
VL: B4 VL
modifications: C0021158
Regarding B5, in assay [1] (top conc 2 μM, n=2), the EC50 is < 0.9 nM and the “Maximum % Proliferation” value was determined as 94%.

B6: C0021181: anti-ARG2 antibody, VH SEQ ID NO: 342, VL SEQ ID NO: 347 (antibody, listed as Homo sapiens, V domains shown)
VH: EVQLLESGGGLVRPGGSLRLSCAASEFTFRYDYHVWVRQAPGKGLEWVSAISGSGGSTYYADSVKSRFTISRDNSKNTLYLQMNSLRAEDTAVYYCARLRADLGLYMDLWGRGTLVTVSS
VL: B4 VL with T19A, I20V, N31S, A57S, V59I, K106R
modifications: C0021181
In assay [2] (setting [4]), B6 had a ka of 257000 M⁻¹ s⁻¹ and a kd of 4.43e-05 s⁻¹.

B7: C0021139: anti-ARG2 antibody, VH SEQ ID NO: 212, VL SEQ ID NO: 217 (antibody, listed as Homo sapiens, V domains shown)
VH: B6 VH with R13Q, E26G, R30Q, H34Q, S66G
VL: B4 VL with A57S, V59I
modifications: C0021139
For B7, in assay [1] (96 hours), the EC50 is < 1 nM and the “Maximum % Proliferation” value stood at 84%. In assay [2] (setting [3]), this molecule had a ka of 275000 M⁻¹ s⁻¹ and a kd of 0.000724 s⁻¹.

B8: C0021022: anti-ARG2 antibody, VH SEQ ID NO: 42, VL SEQ ID NO: 47 (antibody, listed as Homo sapiens, V domains shown)
VH: B2 VH with R74K
VL: B1 VL with N51D, T52N, V53S, Y54E, P55R, K56P
modifications: C0021022
For the molecule B8, in assay [1] (96 hours), the EC50 is < 1 nM. Besides, in assay [2] (setting [3]), the ka is 706000 M⁻¹ s⁻¹ and the kd is 0.00117 s⁻¹.

B9: C0021133: anti-ARG2 antibody, VH SEQ ID NO: 192, VL SEQ ID NO: 197 (antibody, listed as Homo sapiens, V domains shown)
VH: B6 VH with R13Q, E26G, Y33H, S66G
VL: B4 VL with I20V, N52T, S53T, E54V, R55L, T56S, A57S, V59I
modifications: C0021133
Turning to B9, in assay [1] (96 hours), the EC50 is < 0.7 nM and the “Maximum % Proliferation” value amounted to 90%. In assay [2] (setting [3]), this molecule had a ka of 328000 M⁻¹ s⁻¹ and a kd of 0.000549 s⁻¹.

By EC50 is commonly meant the midpoint of the concentration-response curve. Lower therefore signals a more potent agent.
